Source: patent WO2006003999A1 (dated 2006)

T1: human B7RP-1-Fc (human, UniProt O75144 19-256, limits assumed)
T1 construct: not shown: Fc part
T1 sequence (looked up): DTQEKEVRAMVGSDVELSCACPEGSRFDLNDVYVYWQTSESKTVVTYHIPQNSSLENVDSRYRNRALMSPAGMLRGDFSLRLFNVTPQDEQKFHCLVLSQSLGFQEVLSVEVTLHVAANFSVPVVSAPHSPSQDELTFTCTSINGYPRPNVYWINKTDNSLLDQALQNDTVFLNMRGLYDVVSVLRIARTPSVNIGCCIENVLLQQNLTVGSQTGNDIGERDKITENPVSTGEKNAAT


What was measured:
human B7RP-1-Fc [1] = target: T1, human B7RP-1-Fc; experiment: SPR (BIAcore), B7RP-1-Fc immobilised on CM5 or captured by anti-human Fc F(ab')2, scFv injected at 100 nM
human B7RP-1-Fc [2] = target: T1, human B7RP-1-Fc; experiment: SPR (BIAcore), ICOS-Fc immobilised on CM5, B7RP-1-Fc injected

Row | Kd (human B7RP-1-Fc [1]) [nM] | Kd (human B7RP-1-Fc [2]) [nM] | Binder
1 | 13 to 15 |  | human anti-human B7RP-1 single-chain Fv antibody clone 223 (scFv, part only; not given: linker and E tag, not shown: small tags and cut ends) scFv, part: EVQLLQSGADVKKPGASVKVSCTASGYTFTAYYLNWVRQAPGQGLEWMGWLNPTSGDTYYAQKFQGRVTMTRDTSINTAYMELSSLKSDDTAVYYCARDIRSIEVPFDLWGQGTLVTVSSGIVLTQSPGTLSLSPGERVALSCRASQSVTSSFVAWYQQKPGQTPRLLVYGASSRVPGIPDRFSGNGSGTDFTLTITRLEPEDFAIYYCQYYGDSPYTFGQGTKVDIKR
2 |  | ~7 | ICOS-Fc (Fc fusion, human, UniProt Q9Y6W8 21-140, looked up, also called ICOS (Inducible costimulator) Fc fusion; biotin-labeled ICOS-Fc; not shown: Fc part) EINGSANYEMFIFHNGGVQILCKYPDIVQQFKMQLLKGGQILCDLTKTKGSGNTVSIKSLKFCHSQLSNNSVSFFLYNLDHSHANYYFCNLSIFDPPPFKVTLTGGYLHIYESQLCCQLK
